Results on 5 molecules are retold here after publication PMC10662374, “Structures of the interleukin 11 signalling complex reveal gp130 dynamics and the inhibitory mechanism of a cytokine variant” (Nature Communications, 2023).

Where “and” joins values, the source holds several entries; their conditions need not be identical. Equal entries are not always repeated.

The target of assay [1] is IL-11_(Δ10/PAIDY)/IL-11Rα_(D1-D3) binary complex (human) (UniProt P20809). Briefly: ITC; gp130 in the syringe titrated against the cytokine/IL-11Rα_(D1-D3) complex formed in the cell, 288 K, TBS pH 8.5, 1:1 interaction model, n = 3. Background: In ITC the heat of successive injections is recorded.
For assay [2], the target named is IL-11_(Δ10/W147A)/IL-11Rα_(D1-D3) binary complex (human) (UniProt P20809). Described as above.
Assay [3] deals with T1, IL-11Δ10/IL-11Rα_(D1-D3) binary complex (human, UniProt P20809 32-199; Q14626 23-319).
T1 construct: IL-11, human, IL-11Δ10, as m1; numbers count on: the mature protein; IL-11Rα, human, D1-D3, as m8; m1 with m8; also called IL-11Rα_(D1-D3)/IL-11Δ10 binary complex; binary IL-11/IL-11Rα complex; source: formed from the purified proteins (IL-11Δ10 from E. coli, IL-11Rα_(D1-D3) from Sf21); in ITC by titrating the cytokine into IL-11Rα; not shown: His6, N-terminal, cleaved; His8, N-terminal, cleaved; …
T1 sequence 1: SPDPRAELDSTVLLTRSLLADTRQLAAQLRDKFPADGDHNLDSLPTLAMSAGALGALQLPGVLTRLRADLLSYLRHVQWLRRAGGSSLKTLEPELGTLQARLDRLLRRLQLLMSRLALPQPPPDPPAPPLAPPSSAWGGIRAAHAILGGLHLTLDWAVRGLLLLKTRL
T1 sequence 2: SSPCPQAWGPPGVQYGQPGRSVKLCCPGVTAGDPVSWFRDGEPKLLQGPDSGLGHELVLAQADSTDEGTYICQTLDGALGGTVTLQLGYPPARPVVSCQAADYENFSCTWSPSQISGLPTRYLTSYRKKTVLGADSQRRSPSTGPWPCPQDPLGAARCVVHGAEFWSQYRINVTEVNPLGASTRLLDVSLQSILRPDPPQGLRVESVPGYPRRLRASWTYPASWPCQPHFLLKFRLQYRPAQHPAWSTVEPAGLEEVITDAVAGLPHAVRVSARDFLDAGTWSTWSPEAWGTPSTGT
The assay is described as above.

Another assay deals with T2, IL-11Ralpha D1-D3 (Homo sapiens, UniProt Q14626).
T2 chain: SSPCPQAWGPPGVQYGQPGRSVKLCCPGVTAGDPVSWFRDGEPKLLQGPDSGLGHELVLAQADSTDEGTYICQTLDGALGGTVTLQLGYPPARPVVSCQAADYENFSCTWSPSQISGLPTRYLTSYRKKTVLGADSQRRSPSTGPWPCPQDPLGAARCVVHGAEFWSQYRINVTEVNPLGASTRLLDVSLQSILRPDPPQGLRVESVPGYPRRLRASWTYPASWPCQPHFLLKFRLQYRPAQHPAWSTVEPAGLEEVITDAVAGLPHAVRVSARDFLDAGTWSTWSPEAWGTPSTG
Briefly: ITC.

In another assay the target is T3, IL-11Rα_(D1-D3) (human, UniProt Q14626 23-319, N-linked glycans (N105, N172 seen in the structures)).
T3 construct: Secreted with a honeybee-melittin signal peptide; also called C-terminally truncated form of IL-11Rα; not shown: His8, N-terminal, cleaved
T3 sequence: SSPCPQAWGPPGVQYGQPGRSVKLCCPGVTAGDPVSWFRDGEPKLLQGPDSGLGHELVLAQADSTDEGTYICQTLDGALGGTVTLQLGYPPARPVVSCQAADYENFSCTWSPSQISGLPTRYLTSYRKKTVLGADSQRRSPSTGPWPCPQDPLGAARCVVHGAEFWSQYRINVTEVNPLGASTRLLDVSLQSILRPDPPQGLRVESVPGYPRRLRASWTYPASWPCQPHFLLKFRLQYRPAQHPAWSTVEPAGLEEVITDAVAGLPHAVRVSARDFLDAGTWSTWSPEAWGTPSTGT
Briefly: ITC; cytokine in the syringe (10-fold above IL-11Rα), IL-11Rα_(D1-D3) in the cell at 10 μM, TBS pH 8.5, 1:1 interaction model, n = 3. Conditions: both partners purified.

The target of another assay is T4, IL-11Rα D1-D3 (human, UniProt Q14626 23-319).
T4 construct: interleukin 11 receptor subunit alpha, human, C-terminally truncated form with the structured extracellular domains D1-D3; Secreted with a honeybee-melittin signal peptide; tag removed with TEV protease; N-glycosylated; also called IL11RA; RA; not shown: His8, N-terminal, cleaved
T4 sequence: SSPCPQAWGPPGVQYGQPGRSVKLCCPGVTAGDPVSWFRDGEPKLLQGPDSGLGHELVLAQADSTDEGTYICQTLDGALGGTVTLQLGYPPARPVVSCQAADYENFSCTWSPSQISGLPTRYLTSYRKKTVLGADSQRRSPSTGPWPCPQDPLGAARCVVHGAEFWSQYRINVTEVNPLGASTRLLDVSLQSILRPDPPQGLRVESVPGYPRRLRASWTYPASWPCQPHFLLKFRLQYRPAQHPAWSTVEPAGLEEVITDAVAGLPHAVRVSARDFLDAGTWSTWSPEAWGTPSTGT
As to the kind of experiment: SPR; biotinylated IL-11Δ10-avi or IL-11Δ10/Mutein-avi immobilised on a streptavidin chip (SAHC 1500M); IL-11Rα D1-D3 flowed over, nine-point two-fold dilution series from 500 nM; Biacore T200, 25 °C, TBS pH 8.5 + 0.05% Tween, 30 uL/min; 1:1 kinetic model; two replicate dilution series (run 1, run 2). Conditions: both partners purified. In general terms: Surface plasmon resonance follows binding to a sensor surface in real time, without labels.

Assay [4] deals with T5, IL-11RαD1-D3 (C-terminally truncated form of human IL-11Rα, structured extracellular domains D1-D3) (human, UniProt Q14626 23-319).
T5 construct: interleukin 11 receptor subunit alpha, human, domains D1-D3 (C-terminally truncated extracellular region); Expressed with a honeybee-melittin signal peptide; not shown: His8, N-terminal, cleaved
T5 sequence: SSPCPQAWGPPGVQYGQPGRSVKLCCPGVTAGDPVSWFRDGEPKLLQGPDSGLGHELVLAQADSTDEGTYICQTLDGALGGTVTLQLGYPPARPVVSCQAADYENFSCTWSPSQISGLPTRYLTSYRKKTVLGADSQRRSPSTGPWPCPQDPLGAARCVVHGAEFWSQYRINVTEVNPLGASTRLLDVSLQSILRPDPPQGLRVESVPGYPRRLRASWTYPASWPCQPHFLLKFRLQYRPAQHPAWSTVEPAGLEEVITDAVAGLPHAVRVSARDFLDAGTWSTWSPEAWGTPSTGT
As to the kind of experiment: SPR; Biacore T200; biotinylated IL-11-avi constructs immobilised on a streptavidin chip; IL-11RαD1-D3 injected, two-fold dilutions from 500 nM; 25 °C (298 K); TBS pH 8.5 + 0.05% Tween; 30 μL/min; 1:1 kinetic model; n = 2. As to conditions: both partners purified.

Broadly, the Kd is a measure of binding affinity in units of concentration. With gp130_(D2-D3) (receptor), the dissociation constant (Kd) was 60 nM in assay [1], 130 nM in assay [2] and 380 nM in assay [3]. The dH in assay [3] is 6.45 kcal/mol.

B1: IL-11_(Δ10/W147A) (ligand, human)
chain: SPDPRAELDSTVLLTRSLLADTRQLAAQLRDKFPADGDHNLDSLPTLAMSAGALGALQLPGVLTRLRADLLSYLRHVQWLRRAGGSSLKTLEPELGTLQARLDRLLRRLQLLMSRLALPQPPPDPPAPPLAPPSSAAGGIRAAHAILGGLHLTLDWAVRGLLLLKTRL
notes: interleukin 11 (IL-11), human, IL-11Δ10 with W147A; numbers count on: the mature protein; also called IL-11 W147A; W147A mutant; not shown: His6, N-terminal, cleaved
Take B1: the Kd came to 10.4 nM with IL-11Ralpha D1-D3 and 10 nM with IL-11Rα_(D1-D3).

B2: biotinylated IL-11Δ10-avi (ligand, human)
chain: SPDPRAELDSTVLLTRSLLADTRQLAAQLRDKFPADGDHNLDSLPTLAMSAGALGALQLPGVLTRLRADLLSYLRHVQWLRRAGGSSLKTLEPELGTLQARLDRLLRRLQLLMSRLALPQPPPDPPAPPLAPPSSAWGGIRAAHAILGGLHLTLDWAVRGLLLLKTRL
modifications: biotin on the C-terminal avitag
notes: interleukin 11, human, N-terminally truncated form IL-11Δ10; numbers count on: the mature protein; also called IL11d10; not shown: His6, N-terminal, cleaved; avitag, C-terminal, kept
In general, koff refers to the rate constant with which the complex falls apart. One may read the kon as the rate constant with which the complex forms. As for B2, in the assay with IL-11Rα D1-D3, the equilibrium dissociation constant (Kd) is 78.5 nM and 77.1 nM and 77.8 nM; the off-rate (koff) is 0.0943 s⁻¹ and 0.125 s⁻¹; the on-rate constant (kon) is 1.2e+06 M⁻¹ s⁻¹ and 1.61e+06 M⁻¹ s⁻¹ and 1.41e+06 M⁻¹ s⁻¹.

B3: biotinylated IL-11Δ10/Mutein-avi (ligand, human)
chain: SPDPRAELDSTVLLTRSLLADTRQLAAQLRDKFPADGDHNLDSLPTLPAIDYALGALQLPGVLTRLRADLLSYLRHVQWLRRAGGSSLKTLEPELGTLQARLDRLLRRLQLLMSRLALPQPPPDPPAPPLAPPSSAAGGIRAAHAILGGLHLTLDWAVRGLLLLKTRL
modifications: biotin on the C-terminal avitag
notes: interleukin 11, human, N-terminally truncated form IL-11Δ10 with the Mutein changes; numbers count on: the mature protein; not shown: His6, N-terminal, cleaved; avitag, C-terminal, kept
B3: in the assay with IL-11Rα D1-D3, the Kd was 35.8 nM and 30.8 nM and 33.3 nM; the koff was 0.035 s⁻¹ and 0.0335 s⁻¹; the on-rate constant (kon) was 937000 M⁻¹ s⁻¹ and 1.14e+06 M⁻¹ s⁻¹ and 1.04e+06 M⁻¹ s⁻¹.

B4: biotinylated IL-11Δ10-avi (ligand, human)
chain: SPDPRAELDSTVLLTRSLLADTRQLAAQLRDKFPADGDHNLDSLPTLAMSAGALGALQLPGVLTRLRADLLSYLRHVQWLRRAGGSSLKTLEPELGTLQARLDRLLRRLQLLMSRLALPQPPPDPPAPPLAPPSSAWGGIRAAHAILGGLHLTLDWAVRGLLLLKTRL
modifications: biotin on the C-terminal avitag
notes: interleukin 11, human, N-terminally truncated form (Δ10), as Dm1; numbers count on: the mature protein; also called IL11Δ10 - Avitag; source: E. coli BL21(DE3), biotinylated in the cells, purified as IL-11Δ10; not shown: avitag, C-terminal, kept; His6, N-terminal, cleaved
Turning to B4, in assay [4], the Kd was determined as 78 nM and the kon was 1.4e+06 M⁻¹ s⁻¹.
